# Experimental data: paper PMC10998906
# Assays:
# Assay in all cases: negative-stain EM
# [1] = target: H2/1 GCN4 (SG57 head, PR8 stalk, GCN4-trimerized) (influenza A virus A/Puerto Rico/8/34/Mount Sinai(H1N1) | influenza A virus A/Singapore/1/1957(H2N2))
# [2] = target: H5 GCN4 (IN05 HA, GCN4-trimerized) (influenza A virus A/Indonesia/5/2005(H5N1))
# [3] = target: H5/1 GCN4 (IN05 head, PR8 stalk, GCN4-trimerized) (influenza A virus A/Puerto Rico/8/34/Mount Sinai(H1N1) | influenza A virus A/Indonesia/5/2005(H5N1))
substance,measurement,setting,value
"H2/1 GCN4 (SG57 head, PR8 stalk, GCN4-trimerized) (domain or fragment)",stoichiometry N,[1],3
"H5 GCN4 (IN05 HA, GCN4-trimerized) (domain or fragment)",stoichiometry N,[2],3
"H5/1 GCN4 (IN05 head, PR8 stalk, GCN4-trimerized) (domain or fragment)",stoichiometry N,[3],3
